± gives the uncertainty stated by the source.
Experiment: self-splicing fitness, log relative to wild type (ln ratio); higher = more splicing; Tetrahymena group I intron in knt gene, E. coli kanamycin selection, DiMSum; sequences stand for … in CUCUCU…GGAGGGAAAAGUUAUCAGGCAUGCACCUGGUAGCUAGUCUUUAAACCAAUAGAUUGCAUCGGUUUAAAAGGCAAGACCGUCAAAUUGCGGGAAAGGGGUCAACAGCCGUUCAGUACCAAGUCUCAGGGGAAACUUUGAGAUGGCCUUGCAAAGGGUAUGGUAAUAAGCUGACGGACAUGGUCCUAACCACGCAGCCAAGUCCUAAGUCAACAGAUCUUCUGUUGAUAUGGAUGCAGUUCACAGACUAAAUGUCGGUCGGGGAAGAUGUAUUCUUCUCAUAAGAUAUAGUCGGACCUCUCCUUAAUGGGAGCUAGCGGAUGAAGUGAUGCAACACUGGAGCCGCUGGGAACUAAUUUGUAUGCGAAAGUAUAUUGAUUAGUUUUGGAGUACUCGUGGUCG
Method in brief: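 The eight P1ex-region nucleotides of an intron in the knt kanamycin-resistance gene on pET-22b(+) were all randomised and the library put into E. coli BL21(DE3). Six replicate transformations were grown overnight at 37°C or 30°C on LB agar with or without 25 μg/mL kanamycin, together with 100 μg/mL carbenicillin, 50 μM IPTG and 0.2% rhamnose. Colonies were pooled and amplicon-sequenced on an Illumina HiSeq 2500. Fitness from DiMSum is the error-weighted combination of wild-type-normalised replicate fold changes, kanamycin over none.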

Row | Sequence | self-splicing fitness (ln) (30 °C) | self-splicing fitness (ln) (37 °C)
1 | UUGAAGCAAUAUUACGCAAA | -0.591 ± 0.13 | -0.121 ± 0.14
2 | UUGAAGCAAUAUUACGCACC | -2.62 ± 0.34 | -1.41 ± 0.4
3 | UUGAAGCAAUAUUACGCCCG | 0.0378 ± 0.14 | 0.251 ± 0.21
4 | UUGAAGCAAUAUUACGCGAU | -1.96 ± 0.34 | –
5 | UUGAAGCAAUAUUACGCGCG | 0.0526 ± 0.092 | 0.136 ± 0.12
6 | UUGAAGCAAUAUUACGCGGU | -2.94 ± 0.16 | -2.3 ± 0.19
7 | UUGAAGCAAUAUUACGCUGG | -0.756 ± 0.094 | -0.221 ± 0.15
8 | UUGAAGCAAUAUUACGGCAG | 0.393 ± 0.078 | -0.0313 ± 0.092
9 | UUGAAGCAAUAUUACGGGGG | -2.59 ± 0.17 | -1.9 ± 0.19
10 | UUGAAGCAAUAUUACGUAGG | -1.27 ± 0.11 | -0.153 ± 0.12
11 | UUGAAGCAAUAUUACGUCAU | -1.41 ± 0.056 | -0.306 ± 0.069
12 | UUGAAGCAAUAUUACGUGAU | -2.29 ± 0.11 | -1.3 ± 0.16
13 | UUGAAGCAAUAUUACGUGUC | -2.93 ± 0.21 | -2.47 ± 0.24
14 | UUGAAGCAAUAUUACGUGUG | -0.963 ± 0.056 | -0.69 ± 0.072
15 | UUGAAGCAAUAUUACGUUAU | -2.08 ± 0.099 | -0.402 ± 0.1
16 | UUGAAGCAAUAUUACGUUUU | -2.7 ± 0.2 | -2.52 ± 0.3
17 | UUGCAGCAAUAUUACGAAAC | -3.32 ± 0.41 | -1.87 ± 0.45
18 | UUGCAGCAAUAUUACGAAAU | -2.39 ± 0.22 | -2.33 ± 0.39
19 | UUGCAGCAAUAUUACGAAGU | -2.38 ± 0.23 | -1.75 ± 0.36
20 | UUGCAGCAAUAUUACGAAUA | -1.66 ± 0.1 | -0.197 ± 0.13
21 | UUGCAGCAAUAUUACGACAA | -0.619 ± 0.087 | 0.212 ± 0.1
22 | UUGCAGCAAUAUUACGACUG | -2.52 ± 0.19 | -1.72 ± 0.2
23 | UUGCAGCAAUAUUACGAUAA | -0.501 ± 0.11 | 0.0102 ± 0.12
24 | UUGCAGCAAUAUUACGAUUA | -0.176 ± 0.12 | 0.339 ± 0.087
25 | UUGCAGCAAUAUUACGCAAC | – | -2.11 ± 0.22

Row | Sequence | self-splicing fitness (ln) (30 °C) | self-splicing fitness (ln) (37 °C)
26 | UUGCAGCAAUAUUACGCAGC | -2.41 ± 0.41 | -1.83 ± 0.3
27 | UUGCAGCAAUAUUACGCCUA | -0.384 ± 0.084 | 0.346 ± 0.11
28 | UUGCAGCAAUAUUACGCCUG | -2.63 ± 0.15 | -1.6 ± 0.19
29 | UUGCAGCAAUAUUACGCGGC | – | -2.28 ± 0.46
30 | UUGCAGCAAUAUUACGCUCA | -0.833 ± 0.18 | -0.278 ± 0.17
31 | UUGCAGCAAUAUUACGGACA | -0.355 ± 0.074 | -0.669 ± 0.091
32 | UUGCAGCAAUAUUACGGCUC | -0.757 ± 0.094 | -0.29 ± 0.14
33 | UUGCAGCAAUAUUACGGCUU | 0.193 ± 0.069 | 0.35 ± 0.095
34 | UUGCAGCAAUAUUACGGGAG | -1.53 ± 0.11 | -1.58 ± 0.13
35 | UUGCAGCAAUAUUACGUGAC | -1.55 ± 0.11 | -0.799 ± 0.13
36 | UUGCAGCAAUAUUACGUGGC | – | -2.93 ± 0.32
37 | UUGCAGCAAUAUUACGUUAA | -1.55 ± 0.1 | -0.515 ± 0.089
38 | UUGGAGCAAUAUUACGAGCG | -2.64 ± 0.3 | -0.508 ± 0.32
39 | UUGGAGCAAUAUUACGAGUU | -4.04 ± 0.26 | -3.45 ± 0.34
40 | UUGGAGCAAUAUUACGAUAA | -2.08 ± 0.26 | 0.881 ± 0.28
41 | UUGGAGCAAUAUUACGAUUA | -0.16 ± 0.41 | -1.3 ± 0.39
42 | UUGGAGCAAUAUUACGAUUU | -3.2 ± 0.21 | -2.86 ± 0.29
43 | UUGGAGCAAUAUUACGCAAA | -2.95 ± 0.44 | -2.54 ± 0.41
44 | UUGGAGCAAUAUUACGCUUU | -2.75 ± 0.23 | -2.3 ± 0.5
45 | UUGGAGCAAUAUUACGGCGU | – | -2.29 ± 0.35
46 | UUGGAGCAAUAUUACGGGAG | -4.02 ± 0.39 | -2.62 ± 0.31
47 | UUGGAGCAAUAUUACGGGCA | – | -1.45 ± 0.35
48 | UUGGAGCAAUAUUACGGGUC | -3.74 ± 0.34 | –
49 | UUGGAGCAAUAUUACGUAAG | -2.23 ± 0.26 | -0.995 ± 0.24
50 | UUGGAGCAAUAUUACGUCUC | -2.96 ± 0.33 | -2.41 ± 0.33

Row | Sequence | self-splicing fitness (ln) (30 °C) | self-splicing fitness (ln) (37 °C)
51 | UUGGAGCAAUAUUACGUGAA | -2.62 ± 0.21 | -1.27 ± 0.2
52 | UUGGAGCAAUAUUACGUGCG | -1.73 ± 0.28 | -0.739 ± 0.21
53 | UUGGAGCAAUAUUACGUUCG | -2.23 ± 0.16 | -0.989 ± 0.17
54 | UUGGAGCAAUAUUACGUUUC | -3.77 ± 0.43 | -3.44 ± 0.42
55 | UUGUAGCAAUAUUACGACAA | -0.0967 ± 0.15 | -0.283 ± 0.15
56 | UUGUAGCAAUAUUACGACGC | -2.8 ± 0.44 | -0.663 ± 0.36
57 | UUGUAGCAAUAUUACGCACU | 0.662 ± 0.21 | 0.253 ± 0.19
58 | UUGUAGCAAUAUUACGCGCA | -0.824 ± 0.17 | 0.43 ± 0.19
59 | UUGUAGCAAUAUUACGCUGG | -1.38 ± 0.15 | -1.77 ± 0.23
60 | UUGUAGCAAUAUUACGGUAG | -0.909 ± 0.18 | -0.181 ± 0.2
61 | UUGUAGCAAUAUUACGUCGC | -3.54 ± 0.46 | –
62 | UUGUAGCAAUAUUACGUCUU | -0.945 ± 0.16 | -0.491 ± 0.19
63 | UUGUAGCAAUAUUACGUGCU | -3.17 ± 0.27 | -1.54 ± 0.21
64 | UUGUAGCAAUAUUACGUGGC | – | -2.15 ± 0.47
65 | UUUAAGCAAUAUUACGAAGC | -1.88 ± 0.32 | -0.328 ± 0.42
66 | UUUAAGCAAUAUUACGAUGC | -1.41 ± 0.37 | –
67 | UUUAAGCAAUAUUACGCAAA | -1.59 ± 0.38 | -0.938 ± 0.28
68 | UUUAAGCAAUAUUACGCACU | -0.382 ± 0.1 | -0.128 ± 0.12
69 | UUUAAGCAAUAUUACGCCCA | 0.412 ± 0.32 | 0.619 ± 0.37
70 | UUUAAGCAAUAUUACGCGGU | -3.46 ± 0.26 | -1.85 ± 0.23
71 | UUUAAGCAAUAUUACGGAUG | -1.56 ± 0.1 | -0.852 ± 0.13
72 | UUUAAGCAAUAUUACGGCCC | 0.344 ± 0.32 | –
73 | UUUAAGCAAUAUUACGGGGU | -3.7 ± 0.22 | -1.7 ± 0.19
74 | UUUAAGCAAUAUUACGGGUA | -2.25 ± 0.13 | -0.422 ± 0.11
75 | UUUAAGCAAUAUUACGGGUC | -3.19 ± 0.35 | -2.25 ± 0.35

Row | Sequence | self-splicing fitness (ln) (30 °C) | self-splicing fitness (ln) (37 °C)
76 | UUUAAGCAAUAUUACGUGAA | -0.503 ± 0.093 | -0.616 ± 0.095
77 | UUUAAGCAAUAUUACGUGGU | -2.88 ± 0.16 | -2.62 ± 0.21
78 | UUUAAGCAAUAUUACGUGUG | -1.24 ± 0.096 | -0.602 ± 0.093
79 | UUUCAGCAAUAUUACGAAAA | -1.02 ± 0.15 | -0.793 ± 0.15
80 | UUUCAGCAAUAUUACGAACG | -0.381 ± 0.11 | 0.41 ± 0.14
81 | UUUCAGCAAUAUUACGAAUC | -1.94 ± 0.18 | -1.31 ± 0.24
82 | UUUCAGCAAUAUUACGACGA | -0.00347 ± 0.1 | 0.236 ± 0.12
83 | UUUCAGCAAUAUUACGCACG | -1.05 ± 0.12 | -0.0521 ± 0.13
84 | UUUCAGCAAUAUUACGCCCA | -1.19 ± 0.22 | -0.699 ± 0.22
85 | UUUCAGCAAUAUUACGCCCG | -0.734 ± 0.22 | 0.939 ± 0.3
86 | UUUCAGCAAUAUUACGCCUU | -1.58 ± 0.2 | -0.883 ± 0.2
87 | UUUCAGCAAUAUUACGCGGA | -2.2 ± 0.14 | -1.54 ± 0.15
88 | UUUCAGCAAUAUUACGCUCU | -1.2 ± 0.093 | -0.182 ± 0.11
89 | UUUCAGCAAUAUUACGGCUG | -4.1 ± 0.46 | -1.84 ± 0.27
90 | UUUCAGCAAUAUUACGGGCC | -4.27 ± 0.46 | -2.37 ± 0.37
91 | UUUCAGCAAUAUUACGGGCG | -1.02 ± 0.098 | 0.331 ± 0.14
92 | UUUCAGCAAUAUUACGGGUU | -3.19 ± 0.24 | -2.13 ± 0.18
93 | UUUCAGCAAUAUUACGGUAA | -0.255 ± 0.1 | -0.168 ± 0.084
94 | UUUCAGCAAUAUUACGUAAA | -0.728 ± 0.089 | -0.608 ± 0.11
95 | UUUCAGCAAUAUUACGUACC | -3.51 ± 0.25 | -2.14 ± 0.17
96 | UUUCAGCAAUAUUACGUAGA | -1.72 ± 0.076 | -0.283 ± 0.092
97 | UUUCAGCAAUAUUACGUAUC | -1.71 ± 0.14 | -1.5 ± 0.14
98 | UUUCAGCAAUAUUACGUAUU | -2.08 ± 0.13 | -1.39 ± 0.13
